Results reported in patent publication US12630600B2 (MEDIMMUNE LIMITED, priority 2022, dated 2026).
Starred links: 1 amine or outer side, 2 acyl side, 3 side chain; linkers in the order of their positions; H or OH if unused. Non-standard residues stand in square brackets, D forms with d. Groups on a side chain read outwards from the residue. No end group written: not given here. *: point of attachment. C20 diacid = O=C(O)CCCCCCCCCCCCCCCCCCC(=O)*; C18 diacid = O=C(O)CCCCCCCCCCCCCCCCC(=O)*; γGlu = O=C(O)[C@H](CCC(=O)[*:2])N[*:1]; αMeF = C[C@](N)(Cc1ccccc1)C(=O)O; AEEA = NCCOCCOCC(=O)O; Aib = CC(C)(N)C(=O)O

Key:
[1] = molecular target: human GLP-1 receptor (human, UniProt P43220); assay: cell-based or functional assay
[2] = molecular target: human glucagon receptor (human, UniProt P47871); assay: cell-based or functional assay

cAMP production EC50 [1]	cAMP production EC50 [2]	Binder
0.166 nM	0.355 nM	H[Aib]QGTFTSDVSK[αMeF]LDSK([AEEA-AEEA-γGlu-C18 diacid])RAQDFVQWLL[Aib]TE-OH (not fully specified) [Peptide 150]
0.00871 nM	2.65 nM	H[Aib]QGTFTSDVSK[αMeF]LDSK([AEEA-AEEA-γGlu-C18 diacid])RAQDFVRWVVE[Aib]G-OH (N-terminus assumed; SMILES CC(C)C[C@H](NC(=O)[C@](C)(Cc1ccccc1)NC(=O)[C@H](CCCCN)NC(=O)[C@H](CO)NC(=O)[C@@H](NC(=O)[C@H](CC(=O)O)NC(=O)[C@H](CO)NC(=O)[C@@H](NC(=O)[C@H](Cc1ccccc1)NC(=O)[C@@H](NC(=O)CNC(=O)[C@H](CCC(N)=O)NC(=O)C(C)(C)NC(=O)[C@@H](N)Cc1c[nH]cn1)[C@@H](C)O)[C@@H](C)O)C(C)C)C(=O)N[C@@H](CC(=O)O)C(=O)N[C@@H](CO)C(=O)N[C@@H](CCCCNC(=O)COCCOCCNC(=O)COCCOCCNC(=O)CC[C@H](NC(=O)CCCCCCCCCCCCCCCCC(=O)O)C(=O)O)C(=O)N[C@@H](CCCNC(=N)N)C(=O)N[C@@H](C)C(=O)N[C@@H](CCC(N)=O)C(=O)N[C@@H](CC(=O)O)C(=O)N[C@@H](Cc1ccccc1)C(=O)N[C@H](C(=O)N[C@@H](CCCNC(=N)N)C(=O)N[C@@H](Cc1c[nH]c2ccccc12)C(=O)N[C@H](C(=O)N[C@H](C(=O)N[C@@H](CCC(=O)O)C(=O)NC(C)(C)C(=O)NCC(=O)O)C(C)C)C(C)C)C(C)C) [Peptide 149]
0.111 nM	0.178 nM	H[Aib]QGTFTSDVSK[αMeF]LDSK([AEEA-AEEA-γGlu-C20 diacid])RAQDFVRWLL[Aib]TE-OH (N-terminus assumed; SMILES CC(C)C[C@H](NC(=O)[C@H](Cc1c[nH]c2ccccc12)NC(=O)[C@H](CCCNC(=N)N)NC(=O)[C@@H](NC(=O)[C@H](Cc1ccccc1)NC(=O)[C@H](CC(=O)O)NC(=O)[C@H](CCC(N)=O)NC(=O)[C@H](C)NC(=O)[C@H](CCCNC(=N)N)NC(=O)[C@H](CCCCNC(=O)COCCOCCNC(=O)COCCOCCNC(=O)CC[C@H](NC(=O)CCCCCCCCCCCCCCCCCCC(=O)O)C(=O)O)NC(=O)[C@H](CO)NC(=O)[C@H](CC(=O)O)NC(=O)[C@H](CC(C)C)NC(=O)[C@](C)(Cc1ccccc1)NC(=O)[C@H](CCCCN)NC(=O)[C@H](CO)NC(=O)[C@@H](NC(=O)[C@H](CC(=O)O)NC(=O)[C@H](CO)NC(=O)[C@@H](NC(=O)[C@H](Cc1ccccc1)NC(=O)[C@@H](NC(=O)CNC(=O)[C@H](CCC(N)=O)NC(=O)C(C)(C)NC(=O)[C@@H](N)Cc1c[nH]cn1)[C@@H](C)O)[C@@H](C)O)C(C)C)C(C)C)C(=O)N[C@@H](CC(C)C)C(=O)NC(C)(C)C(=O)N[C@H](C(=O)N[C@@H](CCC(=O)O)C(=O)O)[C@@H](C)O) [Peptide 151]
